In data set [1] the target is AL1 ZFP (Clone 1, 3-finger, Sp1C domain 2 framework) (artificial). The experiment in a line: EMSA; half-maximal binding also 18 nM; 10 mM Tris pH 7.5, 100 mM NaCl, 1 mM MgCl2, 0.1 mM ZnCl2, poly(dA-dT)2, on ice. The settings on record: tags: expressed from pET-21a in E. coli BL21(DE3)pLysS, Bio-Rex 70 purified; label: 5'-32P. (In general: A gel shift assay detects complexes by their altered migration in electrophoresis.)

Another data set deals with Zif268 (UniProt P08046 P08046:333-421). Description: EMSA; half-maximal binding; positive control; 0.1 mM ZnCl2.

Consider two molecules from patent US20040091878, “Zinc finger domain recognition code and uses thereof” (published 2004).

Sequence of AL1 ZFP (Clone 1, 3-finger, Sp1C domain 2 framework) (artificial) (chain, as listed by the source): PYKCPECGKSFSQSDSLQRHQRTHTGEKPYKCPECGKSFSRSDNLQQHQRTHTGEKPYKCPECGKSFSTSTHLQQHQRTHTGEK

B1: AL1 target probe (dsDNA)
DNA 1: TATATATAAGTAAGGTAGTATATATA
DNA 2: TATATATACTACCTTACTTATATATA
Take B1: in data set [1], the affinity, expressed as Kd, was 18 nM.

B2: Zif268 target probe (dsDNA)
DNA 1: TATATATAGCGTGGGCGTTATATATA
DNA 2: TATATATAACGCCCACGCTATATATA
B2: in the data set with Zif268, the “apparent K (half saturation)” value came to 4 nM.
